# T1: Boi1 SH3 (BOI1_YEAST), P38041
# T1 chain: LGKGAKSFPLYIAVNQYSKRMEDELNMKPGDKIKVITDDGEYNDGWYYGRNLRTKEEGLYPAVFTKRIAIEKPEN
# T2: Boi2 SH3 (BOI2_YEAST), P39969
# T2 chain: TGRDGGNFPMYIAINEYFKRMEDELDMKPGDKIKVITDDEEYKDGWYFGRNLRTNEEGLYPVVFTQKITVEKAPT
# T3: Rvs167 SH3 (RV167_YEAST), P39743
# T3 chain: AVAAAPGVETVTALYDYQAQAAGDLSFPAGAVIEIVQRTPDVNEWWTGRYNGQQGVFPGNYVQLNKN
# T4: Yfr024 SH3 (LSB3_YEAST), P43603
# T4 chain: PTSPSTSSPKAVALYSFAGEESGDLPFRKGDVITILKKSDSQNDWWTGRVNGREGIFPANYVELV
# T5: Yhr016c SH3 (YSC84_YEAST), P32793
# T5 chain: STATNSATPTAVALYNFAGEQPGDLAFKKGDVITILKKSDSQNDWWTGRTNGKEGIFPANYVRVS
# Assays:
# Assay in all cases: SPOT array
# [1] = target: T1, Boi1 SH3 (BOI1_YEAST), P38041
# [2] = target: T2, Boi2 SH3 (BOI2_YEAST), P39969
# [3] = target: T3, Rvs167 SH3 (RV167_YEAST), P39743
# [4] = target: T4, Yfr024 SH3 (LSB3_YEAST), P43603
# [5] = target: T5, Yhr016c SH3 (YSC84_YEAST), P32793
Binder,"normalised SPOT signal, Boehringer light units (BLU); mean over the file's lines of this peptide [1]","normalised SPOT signal, Boehringer light units (BLU); mean over the file's lines of this peptide [2]","normalised SPOT signal, Boehringer light units (BLU); mean over the file's lines of this peptide [3]","normalised SPOT signal, Boehringer light units (BLU); mean over the file's lines of this peptide [4]","normalised SPOT signal, Boehringer light units (BLU); mean over the file's lines of this peptide [5]"
LSLPRLPNKHHWPL [YAR068W 116-129],197,44.9,252,27100,2000
LSSPSLPPKVNATN [YEL042W 325-338],113,22,34.7,3210,92.2
LSTPSAPAKINNYS [YDR109C 605-618],18.3,37.9,30.6,174,144
LTSPFEPPKPKTKH [YJR064W 272-285],188,33.7,8.1,82.2,149
LTLPFGPVKSIWLS [YGR227W 189-202],5.9,41.5,17.2,36.6,297
LTSPKNPIKSVTKF [YDR172W 569-582],547,25.9,96.1,227,40.3
LVIPSTPSKKSKYS [YOR315W 23-36],94.8,37.5,32.2,627,95.7
LVQPNVPEKHNMST [YHL002W 144-157],52.4,48.3,44.1,94.6,107
LVQPVVPDKVFSFR [YER036C 368-381],124,52,63.5,311,370
LVTPEEPAKNKSER [YDL129W 13-26],126,74.6,78.8,49.1,69.6
LWIPDDPSKARFLS [YJR152W 267-280],63.1,25.2,36.6,561,200
LWQPVDPSREDLVI [YLR301W 128-141],49.2,51.5,0.8,179,139
LYKPGMPPRPHFIT [YNL045W 494-507],25.6,60.6,34.7,899,326
MAAPPVPPKQSQED [YPL084W 790-803],84.2,40.6,52.4,4570,279
MALPRTPLKTSTEE [YCL009C 276-289],100,101,338,1130,280
MEYPFKPPKMQFDT [YDR177W 60-73],56.3,55.1,68.7,483,178
MKAPKMPDKHRDNY [YDL031W 923-936],163,162,331,1760,399
MLIPNFPNKKLKLN [YHR086W 128-141],34.7,59.7,70.8,1090,423
MPTPMTPVKVGALA [YNL040W 1-14],13.5,55,11,288,66.7
MQGPKIPWRSGRVD [YKR066C 186-199],2850,651,1270,15900,13800
MRAPPSPRKSKSGH [YOR255W 1-14],81.1,168,261,1240,1100
MSEPEVPFKVVAQF [YJL020C 1-14],74.2,64.8,19.9,48.9,105
